Reference: patent publication US20250313627A1 (FUSE BIOTHERAPEUTICS, published 2025)

Experiments:
[1] = target: T1, recombinant His tagged human ROR1 (human, UniProt Q01973 30-403, limits assumed); assay: BLI (Octet), FUSE protein loaded on the biosensor, His tagged ROR1 in solution
T1 construct: Analyte in the BLI assay; also called Human ROR1-His; recombinant ROR1
Experimental: (§1) As shown in FIGS. 5A-5D, the binding affinities (KD) of TCEs for ROR1 were assessed. We examined the magnitude by which several TCEs and mutants thereof bind to recombinant ROR1. Kinetic binding graphs were generated via Bio-Layer Interferometry (BLI) using an Octet system. For each TCE, the biosensor tips were coated with FUSE proteins at 15 μg/ml and probed with either recombinant His tagged ROR1 at concentrations ranging from 100 pM to 10 μM. […] The binding affinity (KD), on rate (k-on) and off rate (k-dis), are summarized for ROR1 in FIG. 5D.
(§2) Antibodies were prepared in 1×PBS with 0.02% Tween-20 with the final concentration of 15 ug/ml. Human ROR1-His or CD3e-His protein were also prepared, and serial diluted (4-fold dilution ranging from 400 nM to 0.098 nM) in 1×PBS with 0.02% Tween-20. The biosensors were pre-moistened in 200 uL of 1×PBS with 0.02% Tween-20 for 10 minutes. Meanwhile, Octet BLI system (ForteBio) was prewarmed for 30 minutes and the flow rate was set to 1000 rpm. The biosensors (Anti-hIgG Fc Capture biosensor) were soaked in 250 uL of 1×PBS with 0.02% Tween-20 for 60 seconds at 30° C. to get an initial baseline reading. After the 60-second baseline reading, the biosensors were exposed to testing antibody for 300 seconds at 30° C. for the association between antibody and the biosensors (coupling antibody with biosensor). The biosensors with antibody were then exposed to human ROR1 or CD3e in 250 uL of 1×PBS with 0.02% Tween-20 at 30° C. for 300 seconds for the association reaction between antibody and human ROR1 or CD3e (association curve). After 300-second association reaction between antibody and antigen, the biosensors with antibody and antigen were then exposed to 250 uL of 1×PBS with 0.02% Tween-20 at 30° C. for 300 seconds for the dissociation reaction between antibody and […]. The binding affinity was calculated by the built-in data fitting algorithm.

[2] = target: T1, recombinant His tagged human ROR1; assay: BLI (Octet), FUSE protein loaded on the biosensor, His tagged ROR1 in solution; column 'kdis(1/s)'
Experimental: as §1, §2

[3] = target: T2, human ROR1 (Receptor Tyrosine Kinase-Like Orphan Receptor 1) on the cell surface (human, UniProt Q01973 30-937); assay: flow cytometry on MDA-MB-231 ROR1 low cells (about 17,000 ROR1 per cell), secondary antibody to the IgG1 Fc
T2 construct: whole, on cells; engineered into B16-F10 (high density) and LS174T (low density) cells; also called B16-F10-ROR1-H; LS174T-ROR1-L
T2 sequence (Q01973 30-937): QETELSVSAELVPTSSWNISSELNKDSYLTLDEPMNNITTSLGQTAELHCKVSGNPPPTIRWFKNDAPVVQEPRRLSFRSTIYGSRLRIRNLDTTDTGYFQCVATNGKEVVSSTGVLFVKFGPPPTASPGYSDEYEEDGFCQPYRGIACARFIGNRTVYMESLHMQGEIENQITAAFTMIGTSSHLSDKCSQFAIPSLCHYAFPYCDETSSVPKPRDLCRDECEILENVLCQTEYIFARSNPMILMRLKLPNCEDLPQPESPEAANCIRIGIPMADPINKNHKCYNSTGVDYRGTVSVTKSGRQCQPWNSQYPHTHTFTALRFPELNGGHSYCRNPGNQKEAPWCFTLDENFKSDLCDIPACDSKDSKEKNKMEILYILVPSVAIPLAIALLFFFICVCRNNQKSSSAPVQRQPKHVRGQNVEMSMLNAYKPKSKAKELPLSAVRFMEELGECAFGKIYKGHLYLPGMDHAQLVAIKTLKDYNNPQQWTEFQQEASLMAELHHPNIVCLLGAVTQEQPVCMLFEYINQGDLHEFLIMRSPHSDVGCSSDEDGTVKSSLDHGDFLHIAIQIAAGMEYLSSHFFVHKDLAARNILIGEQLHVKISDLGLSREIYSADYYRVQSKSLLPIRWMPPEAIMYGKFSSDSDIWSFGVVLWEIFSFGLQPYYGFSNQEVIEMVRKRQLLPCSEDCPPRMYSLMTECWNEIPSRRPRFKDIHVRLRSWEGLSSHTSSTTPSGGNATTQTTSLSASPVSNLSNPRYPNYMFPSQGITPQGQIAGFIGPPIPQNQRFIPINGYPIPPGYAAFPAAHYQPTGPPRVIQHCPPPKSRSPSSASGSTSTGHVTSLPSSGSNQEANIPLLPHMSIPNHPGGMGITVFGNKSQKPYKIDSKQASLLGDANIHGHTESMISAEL
Experimental: (§3) Binding of 2A11 (black line), 5A1 (dark grey line) and VHH8 (medium grey line) were tested in TCE format 12A. The commercial ROR1 specific Ab reported to bind the ROR1-Ig domain 2A2 (light grey line), served as the positive control and anti-HEL (dotted black line) served as the negative control. To better visualize binding of each test article to the three cells lines, we plotted MFI on the y-axis for each test article for HEK-293 cells (negative control; FIG. 4I), HEK-293 cells transfected with full length human ROR1 (FIG. 4J) and HEK-293 cells transfected with the ROR1 Ig domain linked to the cell surface via the GPI linker from CD59 (FIG. 4K).
(§4) Adherent target cells were collected by brief TrypLE treatment while suspension cells were directly collected. Collected cells were washed once with PBS by centrifugation at 500×g for 5 minutes at room temperature and added to V-bottom 96-well plate (200,000-300,000 cells per well). To prepared Live/Dead fixable red, one vial of powder was dissolved into 50 uL of DMSO to make stock solution and then diluted 1 uL of stock Live/Dead fixable red in 1 mL of PBS to prepare the working solution. 100 uL of Live/Dead fixable red working buffer was then added to the cell in the V-bottom 96-well plate (200,000-300,000 cells per well) and incubated for 15 minutes at room temperature. After the 15-minute incubation, the cells were washed twice with PBS by centrifugation at 500 g for 5 minutes at room temperature. The cells were then cultured with antibodies at different concentrations in 100 uL of Biolegend staining buffer at 4° C. for 45 minutes. After the 45-minute incubation with primary antibody, the cells were washed with PBS by centrifugation at 500 g for 5 minutes at room temperature. The cells were then cultured with PE-Cy7-conjugated mouse-anti-human IgG secondary antibody in Biolegend staining buffer at 4° C. for 45 minutes. […] The samples were then analyzed on Cytek flow cytometer.

[4] = target: T2, human ROR1 (Receptor Tyrosine …); assay: flow cytometry on MDA-MB-231 ROR1 high cells (about 500,000 ROR1 per cell), secondary antibody to the IgG1 Fc
Experimental: as §3, §4

[5] = target: T2, human ROR1 (Receptor Tyrosine …); assay: flow cytometry on MDA-MB-231 ROR1 normal cells (about 35,000 ROR1 per cell), secondary antibody to the IgG1 Fc
Experimental: as §3, §4

[6] = target: T2, human ROR1 (Receptor Tyrosine …); assay: flow cytometry on MDA-MB-231 ROR1 super high cells (about 2,000,000 ROR1 per cell), secondary antibody to the IgG1 Fc
Experimental: as §3, §4

T1 sequence (Q01973 30-403 limits assumed): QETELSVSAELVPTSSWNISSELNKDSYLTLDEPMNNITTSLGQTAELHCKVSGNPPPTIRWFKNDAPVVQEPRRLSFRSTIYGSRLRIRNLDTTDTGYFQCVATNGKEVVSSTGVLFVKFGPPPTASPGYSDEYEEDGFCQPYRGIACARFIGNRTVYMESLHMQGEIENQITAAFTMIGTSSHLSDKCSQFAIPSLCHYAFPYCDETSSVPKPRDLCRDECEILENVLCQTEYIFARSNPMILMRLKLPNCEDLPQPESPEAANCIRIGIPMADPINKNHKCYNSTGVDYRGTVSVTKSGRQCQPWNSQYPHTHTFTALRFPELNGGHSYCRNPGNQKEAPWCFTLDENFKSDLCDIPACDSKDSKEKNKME

B1: FUSE-211 (bispecific antibody, human IgG1, lambda, L234A L235A)
chain: QVQLQESGGGSVPAGGSLRLSCAASGSTYSANCMGWFRQAPGKEREEVASMSIRSGRTYYSDSVKGRFTISQDGSKNTLYLQLNSLKAEDTALYYCAAAYGGSRCVYNYRGQGTQVTVSSGGGGSGGGGSGGGGSQVQLQESGGGSVPAGGSLRLSCAASGSTYSANCMGWFRQAPGKEREEVASMSIRSGRTYYSDSVKGRFTISQDGSKNTLYLQLNSLKAEDTALYYCAAAYGGSRCVYNYRGQGTQVTVSSEPKSSDKTHTCPPCPAPEAAGGPSVFLFPPKPKDTLMISRTPEVTCVVVDVSHEDPEVKFNWYVDGVEVHNAKTKPREEQYNSTYRVVSVLTVLHQDWLNGKEYKCKVSNKALPAPIEKTISKAKGQPREPQVYTLPPSREEMTKNQVSLSCAVKGFYPSDIAVEWESNGQPENNYKTTPPVLDSDGSFFLVSKLTVDKSRWQQGNVFSCSVMHEALHNRFTQKSLSLSPGK
heavy: EVQLVESGGGLVQPGGSLRLSCAASGFTFSTYAMNWVRQAPGKGLEWVARIRSKYNNYATYYADSVKDRFTISRDDSKNTLYLQMNSLRAEDTAVYYCARHGNFGNSYVSWFAYWGQGTMVTVSSASTKGPSVFPLAPSSKSTSGGTAALGCLVKDYFPEPVTVSWNSGALTSGVHTFPAVLQSSGLYSLSSVVTVPSSSLGTQTYICNVNHKPSNTKVDKKVEPKSCDKTHTCPPCPAPEAAGGPSVFLFPPKPKDTLMISRTPEVTCVVVDVSHEDPEVKFNWYVDGVEVHNAKTKPREEQYNSTYRVVSVLTVLHQDWLNGKEYKCKVSNKALPAPIEKTISKAKGQPREPQVYTLPPSREEMTKNQVSLWCLVKGFYPSDIAVEWESNGQPENNYKTTPPVLDSDGSFFLYSKLTVDKSRWQQGNVFSCSVMHEALHNHYTQKSLSLSPGK
light: QAVVTQEPSLTVSPGGTVTLTCRSSTGAVTTSNYANWVQQKPGQAPRGLIGGTNKRAPGTPARFSGSLLGGKAALTLSGVQPEDEAEYYCALWYSNLWVFGGGTKLTVLGQPKAAPSVTLFPPSSEELQANKATLVCLISDFYPGAVTVAWKADSSPVKAGVETTTPSKQSNNKYAASSYLSLTPEQWKSHRSYSCQVTHEGSTVEKTVAPTECS
notes: Hole chain: 2A11-linker-2A11-Fc; knob chain: anti-CD3 Fab heavy chain-Fc; anti-CD3 light chain; also called format 11A incorporating 2A11
B1 was tested, and the Kd [1] was 17000 pM, the kon [1] was 135000 M⁻¹ s⁻¹ and the koff [2] was 0.00229 s⁻¹. For the same binder, the EC50 [3] was 400 pM, the EC50 [4] was 550 pM and the EC50 [5] was 450 pM. It also gave an EC50 [6] of 190 pM.
